Experimental data from patent publication US20220363757A1.

Target: cynomolgus LAG-3 ECD human IgG1 Fc fusion (cynomolgus; human), P18627
Experiment: SPR, Fab over captured LAG-3 ECD-Fc

Chain of cynomolgus LAG-3 ECD human IgG1 Fc fusion (cynomolgus; human), P18627 (P18627 other isoform, or with tags, fused parts or gaps, form in doubt): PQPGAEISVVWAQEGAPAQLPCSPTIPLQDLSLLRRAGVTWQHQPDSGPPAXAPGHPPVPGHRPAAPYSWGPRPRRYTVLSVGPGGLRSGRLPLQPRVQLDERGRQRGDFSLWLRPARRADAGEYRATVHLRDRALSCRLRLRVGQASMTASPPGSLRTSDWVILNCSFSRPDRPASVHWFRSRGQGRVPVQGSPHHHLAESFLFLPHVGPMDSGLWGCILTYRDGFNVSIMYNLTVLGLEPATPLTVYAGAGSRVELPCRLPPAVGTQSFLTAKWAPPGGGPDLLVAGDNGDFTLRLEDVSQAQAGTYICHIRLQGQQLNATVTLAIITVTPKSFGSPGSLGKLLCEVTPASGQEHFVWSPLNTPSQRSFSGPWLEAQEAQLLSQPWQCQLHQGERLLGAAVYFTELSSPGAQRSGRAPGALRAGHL

Kd [nM]	koff [s⁻¹]	kon [M⁻¹ s⁻¹]	Binder
120	0.0068	59000	Fab fragment of antibody 15431 (Fab, not shown: a dimerising Fc or GST) heavy: QVQLQQSGPGLVKPSQTLSLTCAISGDSVSSNSAAWNWIRQSPSRGLEWLGRTYYRSKWYNDYAVSVKSRITINPDTSKNQFSLQLNSVTPEDTAVYYCARDDDWNDFDYWGQGTLVTVSS light: not shown
35	0.0025	70000	Fab fragment of antibody 15011 (Fab, not shown: a dimerising Fc or GST) heavy: EVQLLESGGGLVQPGGSLRLSCAASGFDFRSYAMMWVRQAPGKGLEWVGGINGEVGGSNTYYAPAVKGRATISRDNSKNTLYLQMNSLRAEDTAVYYCVKGAGACGICNDDIDAWGQGTLVTVSS light: SYELTQDPAVSVALGQTVRITCSGAGSYAGSYYYGWHQQKPGQAPVTVIYDNDKRPSNIPDRFSGSSSGNTASLTITGAQAEDEADYYCGSTNDNDDGGLFGSGTKVTVLGQPKANPTVTLFPPSSEELQANKATLVCLISDFYPGAVTVAWKADGSPVKAGVETTKPSKQSNNKYAASSYLSLTPEQWKSHRSYSCQVTHEGSTVEKTVAPTECS
68	0.0048	71000	Fab fragment of antibody 15532 (Fab, not shown: a dimerising Fc or GST) heavy: QVQLQQWGAGLLRPSETLSLTCAVYGESFSGYYWNWIRQPPGKGLEWIGEINHSGSTNYNPSLKSRVTISVDTSKTQFSLKLSSVTAADTAVYYCARGWDLLDWNDYWNEYWGQGTLVTVSS light: not shown
